# Reference: patent US20240067944A1 (published 2024)
# No end group written: not given here.
# B1: Cmpd #1 (monovalent anti-FX VHH polypeptide, VHH-1.1) (VHH)
# VHH: EVQLVESGGGLVQPGGSLRLSCAASGSIGAFDAMGWYRQAPGKQRELVAGIMVSRGNTNYTDSVKGRFTISRDNAKNTVYLQMNSLKPEDTAVYYCKAVKRPGPGYLEVWGQGTLVTVSS
# notes: No protractor
# How the values were obtained:
# Experiment in all cases: ELISA, biotinylated 12-mer peptide on streptavidin, 2 ug/mL FLAG-tagged VHH, anti-FLAG-HRP
# … (human) = target: T1, … (human)
# T1 sequence (peptide, C-terminally conjugated to biotin): LLDFNQTQPERG
# DLLDFNQTQPER = target: T2, DLLDFNQTQPER (human)
# T2 peptide: DLLDFNQTQPER-biotin
# Description: (§1) To determine whether the binding epitope of the anti-FX VHH polypeptide designated “cmpd #1” are located inside the activation peptide (AP) of human FX (SEQ ID NO:2), an ELISA assay was setup. 41 unique 12-mer peptide fragments spanning the 52 residues of the activation peptide with one amino acid spacing were immobilized in microtiter plate wells followed by incubation with the VHH polypeptide to be tested, and detection of bound ligand was performed by addition of a secondary HRP-labelled antibody.
# (§2) The peptides were C-terminally conjugated to biotin and 50 μL of 1 μg/mL peptide solution was used for immobilization in discrete wells of the microtiter plate which was pre-coated with 1 μg/mL streptavidin. Each well was washed with washing buffer (10 mM Tris, 150 mM NaCl, 2.5 mM CaCl₂), 0.05% Tween 20, pH 8.60) followed by addition of 50 μL of 2 μg/mL FLAG-tagged anti-FX VHH polypeptide or IgG antibody to be tested. After 1 hour non-bound VHH polypeptide was washed off using washing buffer.
# (§3) Bound anti-FX activation peptide ligand was detected by first binding a HRP-labelled secondary antibody (for FLAG-tagged VHH polypeptide: Anti-FLAG mAb M2-Peroxidase (HRP) (Sigma Aldrich, US) for 1 hour, and then adding 100 μL TMB-1 ELISA substrate (Kem-En-Tec Diagnostics, Denmark).
# YDAADLDPTENP = target: T3, YDAADLDPTENP (human)
# T3 peptide: YDAADLDPTENP-biotin
# Description: as §1, §2, §3
# TWKPYDAADLDP = target: T4, TWKPYDAADLDP (human)
# T4 peptide: TWKPYDAADLDP-biotin
# Description: as §1, §2, §3
# PDSITWKPYDAA = target: T5, PDSITWKPYDAA (human)
# T5 peptide: PDSITWKPYDAA-biotin
# Description: as §1, §2, §3
# ADLDPTENPFDL = target: T6, ADLDPTENPFDL (human)
# T6 peptide: ADLDPTENPFDL-biotin
# Description: as §1, §2, §3
# DAADLDPTENPF = target: T7, DAADLDPTENPF (human)
# T7 peptide: DAADLDPTENPF-biotin
# Description: as §1, §2, §3
# DSITWKPYDAAD = target: T8, DSITWKPYDAAD (human)
# T8 peptide: DSITWKPYDAAD-biotin
# Description: as §1, §2, §3
# QTQPERGDNNLT = target: T9, QTQPERGDNNLT (human)
# T9 peptide: QTQPERGDNNLT-biotin
# Description: as §1, §2, §3
# ENPFDLLDFNQT = target: T10, ENPFDLLDFNQT (human)
# T10 peptide: ENPFDLLDFNQT-biotin
# Description: as §1, §2, §3
# NPFDLLDFNQTQ = target: T11, NPFDLLDFNQTQ (human)
# T11 peptide: NPFDLLDFNQTQ-biotin
# Description: as §1, §2, §3
# WKPYDAADLDPT = target: T12, WKPYDAADLDPT (human)
# T12 peptide: WKPYDAADLDPT-biotin
# Description: as §1, §2, §3
# TQPERGDNNLTR = target: T13, TQPERGDNNLTR (human)
# T13 peptide: TQPERGDNNLTR-biotin
# Description: as §1, §2, §3
# SGEAPDSITWKP = target: T14, SGEAPDSITWKP (human)
# T14 peptide: SGEAPDSITWKP-biotin
# Description: as §1, §2, §3
# LDFNQTQPERGD = target: T15, LDFNQTQPERGD (human)
# T15 peptide: LDFNQTQPERGD-biotin
# Description: as §1, §2, §3
# ITWKPYDAADLD = target: T16, ITWKPYDAADLD (human)
# T16 peptide: ITWKPYDAADLD-biotin
# Description: as §1, §2, §3
# DPTENPFDLLDF = target: T17, DPTENPFDLLDF (human)
# T17 peptide: DPTENPFDLLDF-biotin
# Description: as §1, §2, §3
# TENPFDLLDFNQ = target: T18, TENPFDLLDFNQ (human)
# T18 peptide: TENPFDLLDFNQ-biotin
# Description: as §1, §2, §3
binder,measurement,setting,value
B1,ELISA signal normalized relative to the background signal (relative to background),… (human),1.88
same,ELISA signal normalized relative to the background signal,DLLDFNQTQPER,3.08 relative to background
same,ELISA signal normalized relative to the background signal,YDAADLDPTENP,0.87 relative to background
same,ELISA signal normalized relative to the background signal,TWKPYDAADLDP,1.13 relative to background
same,ELISA signal normalized relative to the background signal,PDSITWKPYDAA,1.05 relative to background
same,ELISA signal normalized relative to the background signal,ADLDPTENPFDL,0.91 relative to background
same,ELISA signal normalized relative to the background signal,DAADLDPTENPF,0.88 relative to background
same,ELISA signal normalized relative to the background signal,DSITWKPYDAAD,1.08 relative to background
same,ELISA signal normalized relative to the background signal,QTQPERGDNNLT,0.88 relative to background
same,ELISA signal normalized relative to the background signal,ENPFDLLDFNQT,4 relative to background
same,ELISA signal normalized relative to the background signal,NPFDLLDFNQTQ,3.13 relative to background
same,ELISA signal normalized relative to the background signal,WKPYDAADLDPT,0.89 relative to background
same,ELISA signal normalized relative to the background signal,TQPERGDNNLTR,1.05 relative to background
same,ELISA signal normalized relative to the background signal,SGEAPDSITWKP,0.88 relative to background
same,ELISA signal normalized relative to the background signal,LDFNQTQPERGD,0.97 relative to background
same,ELISA signal normalized relative to the background signal,ITWKPYDAADLD,1.1 relative to background
same,ELISA signal normalized relative to the background signal,DPTENPFDLLDF,4.16 relative to background
same,ELISA signal normalized relative to the background signal,TENPFDLLDFNQ,4.84 relative to background
